How the values were obtained:
CD4-TLR4 = target: T1, CD4-TLR4 (UniProt O00206+P06332); assay: ligand-independent NFκB activation by overexpressed CD4-TLR4 in HEK293_TLR4 cells; type: cell-based; conditions: 50 or 100 ng CD4/TLR4 plasmid, peptide 5 or 25 μM 2 or 9 hours after transfection
T1 construct: forced dimerisation of TLR4 TIR domains in the absence of LPS (by overexpressing the fusion protein CD4-TLR4); CD4 (fusion partner); expressed in transfected cells; host or cells: HEK293_TLR4, transiently transfected with 50 or 100 ng CD4/TLR4-encoding plasmid
T1 sequence (P06332+O00206 with tags, fused parts or gaps): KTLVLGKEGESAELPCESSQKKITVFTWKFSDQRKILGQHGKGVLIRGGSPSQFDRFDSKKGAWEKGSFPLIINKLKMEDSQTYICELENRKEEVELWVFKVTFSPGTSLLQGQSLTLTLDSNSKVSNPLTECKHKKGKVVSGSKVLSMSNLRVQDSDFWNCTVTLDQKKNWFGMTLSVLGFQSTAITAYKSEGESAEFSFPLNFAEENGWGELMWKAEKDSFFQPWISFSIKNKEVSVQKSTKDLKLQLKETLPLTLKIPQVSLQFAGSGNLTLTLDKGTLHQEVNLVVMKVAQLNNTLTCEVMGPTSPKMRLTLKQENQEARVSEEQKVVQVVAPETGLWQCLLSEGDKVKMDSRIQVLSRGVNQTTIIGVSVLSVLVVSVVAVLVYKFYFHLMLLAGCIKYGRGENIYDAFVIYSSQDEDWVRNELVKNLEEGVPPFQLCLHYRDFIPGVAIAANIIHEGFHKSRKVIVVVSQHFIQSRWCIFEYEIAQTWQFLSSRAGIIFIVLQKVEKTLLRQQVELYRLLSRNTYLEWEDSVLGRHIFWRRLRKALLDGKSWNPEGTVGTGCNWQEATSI
Description: FIGS. 24A and B are bar charts showing the effect of A464 on ligand-independent TLR4 signalling in HEK293 cells. HEK293_TLR4 cells were seeded in 96 well plate (1.5×10^5 cells/ml) 24 hours before transfection with NFκB-luciferase and TK-Renilla reporter gene plasmids. NFκB activation was stimulated by transfecting either 50 or 100 ng of CD4/TLR4-encoding plasmid or by stimulating with 10 ng/ml LPS. The total amount of plasmid DNA transfected into the cells was made up to 230ng by adding pcDNA. A464 (SEQ ID NO. 20) was added to the cells at a concentration of 5 or 25 μM 2 hours (A) or 9 hours (B) after the transfection or LPS-stimulation. Cells were harvested and assayed for NFκB activation by reporter gene assay 24 hours post-transfection. No peptides were added to the control wells (black bars). Data is representative of two experiments, each performed in triplicate and is expressed as mean fold induction±s.d. relative to control levels;
HEK293 cells were transfected using GeneJuice® a proprietary non-toxic transfection reagent. 200 μl/well cells at a density of 1×10^5 cells/ml were seeded the day before transfection. 0.8 μl of GeneJuice was mixed with 9.2 μl of serum-free DMEM (SFM) per transfection and incubated for 5 min at room temperature before adding the appropriate amount of the plasmid DNA. […] Luciferase activity was analysed using a luminometer. […]

TLR2 = target: T2, TLR2 (Mus musculus, UniProt Q9QUN7); assay: TLR2 response in murine cells; type: cell-based
T2 construct: endogenous in cells
T2 sequence (Q9QUN7 25-784): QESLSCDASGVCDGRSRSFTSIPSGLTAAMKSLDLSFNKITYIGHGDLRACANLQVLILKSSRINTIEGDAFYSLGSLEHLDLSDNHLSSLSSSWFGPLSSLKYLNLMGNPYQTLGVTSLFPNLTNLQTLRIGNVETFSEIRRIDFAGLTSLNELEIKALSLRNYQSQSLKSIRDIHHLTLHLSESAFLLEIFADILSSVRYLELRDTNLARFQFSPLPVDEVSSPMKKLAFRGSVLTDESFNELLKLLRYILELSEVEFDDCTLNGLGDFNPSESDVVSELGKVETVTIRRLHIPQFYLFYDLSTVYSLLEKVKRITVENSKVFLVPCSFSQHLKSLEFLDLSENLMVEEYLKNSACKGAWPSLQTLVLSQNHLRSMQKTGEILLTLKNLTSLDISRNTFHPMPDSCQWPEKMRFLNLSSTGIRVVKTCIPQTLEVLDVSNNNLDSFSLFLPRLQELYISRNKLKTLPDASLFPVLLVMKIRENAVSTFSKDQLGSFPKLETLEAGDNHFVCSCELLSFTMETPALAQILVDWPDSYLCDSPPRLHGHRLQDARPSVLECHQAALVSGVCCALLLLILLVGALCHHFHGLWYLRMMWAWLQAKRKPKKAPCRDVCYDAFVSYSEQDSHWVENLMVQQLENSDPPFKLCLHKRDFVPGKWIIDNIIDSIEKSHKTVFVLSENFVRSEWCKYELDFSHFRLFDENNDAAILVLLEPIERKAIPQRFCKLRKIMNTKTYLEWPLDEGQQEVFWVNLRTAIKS

How did the “inhibition of NFκB activated by forced dimerisation of TLR4 TIR domains (CD4-TLR4)” value (CD4-TLR4) turn out when KYSFKLILAEYRRRRRRRRR [Peptide A464] was run?
Its value is “insensitive to inhibition”.

And the “effect on TLR2 in murine cells” value (TLR2)?
The value was “unaffected”.

Source: patent US8722052B2, “Vaccinia virus protein A46 peptide and use thereof” (priority 2008, dated 2014)
